This test has as its target T1, murine 4-1BBL expressed on the surface of B16-F10 and B16-F10/4-1BBL melanoma cells (mouse, UniProt P41274 1-309).
T1 construct: whole, on cells; also called 4-1BB ligand; mouse 4-1BBL
T1 sequence (looked up): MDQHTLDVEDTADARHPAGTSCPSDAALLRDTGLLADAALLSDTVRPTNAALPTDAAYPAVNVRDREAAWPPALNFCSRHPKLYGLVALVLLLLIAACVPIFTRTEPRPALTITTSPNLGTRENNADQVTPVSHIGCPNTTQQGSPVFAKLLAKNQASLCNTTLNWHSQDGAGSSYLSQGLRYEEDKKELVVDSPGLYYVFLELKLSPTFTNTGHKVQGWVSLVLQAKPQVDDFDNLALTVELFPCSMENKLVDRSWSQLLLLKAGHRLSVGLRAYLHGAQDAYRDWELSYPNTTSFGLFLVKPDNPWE
The test is described as follows: flow cytometry; cells incubated with the chimera, detected with PE-conjugated IgG Fcγ Ab. On the procedure: FIG. 2. B16-F10-4-1BBL cells express functional 4-1BBL binding to 4-1BB. Cells were incubated with 41BB/TNFRSF9/Fc chimera and stained using a PE-conjugated IgG Fcγ Ab to detect binding to 4-1BBL, measured using the FACSCalibur flow cytometer. The black and the green histograms represent the unstained control samples of B16-F10 and B16-F10-4/1BBL sorted cells respectively. The red and the purple histograms show the B16-F10 and B16-F10/4-1BBL cells respectively stained only with the IgG Fcγ PE secondary Ab. The blue histogram represents the B16-F10 cells incubated with the 4-1BB/TNFRSF9/Fc Chimera and stained with the IgG Fcγ PE secondary Ab. The maroon histogram depicts populations of cells further subjected to sorting for 4-1BBL, re-expanded in culture before immunostaining with the 41BB/TNFRSF9/Fc chimera and the IgG Fcγ PE secondary Ab
To further test that the 4-1BBL expressed on the B16-F10/4-1BBL cells was intact and functional, an additional assay was performed for the binding of 4-1BBL on the cells to its receptor, 4-1BB. […]
Transfection efficiency was determined by staining B16-F10 sublines with antibodies to detect the cell surface markers, B7.1 and 4-1BBL. […] The presence of both of these cell surface molecules were detected using either flow cytometer. […]
A general note: Flow cytometry measures light scatter and fluorescence of single cells or particles in a stream.

B1: recombinant mouse 4-1BB/Fc chimera (Fc fusion, UniProt P20334 24-187, looked up)
chain: VQNSCDNCQPGTFCRKYNPVCKSCPPSTFSSIGGQPNCNICRVCAGYFRFKKFCSSTHNAECECIEGFHCLGPQCTRCEKDCRPGQELTKQGCKTCSLGTFNDQNGTGVCRPWTNCSLDGRSVLKTGTTEKDVVCGPPVVSFSPSTTISVTPEGGPGGHSLQVL
notes: Bought reagent; It calls it a 'primary antibody', but it is the receptor 4-1BB fused to Fc; also called 4-1BB/TNFRSF9/Fc Chimera; 41BB/TNFRSF9/Fc chimera; not shown: Fc part of the chimera
With B1, the binding result is reported as “binds”.

Source of the values: patent US20180360879A1 (CANCURE, published 2018).
